# Read-outs that look alike come from different tables or passages of the source.
# T1: human TIGIT expressed on CHO-K1 cells (human, UniProt Q495A1 22-244)
# T1 construct: also called CHO/human TIGIT cells; CHO-TIGIT cells
# T1 sequence: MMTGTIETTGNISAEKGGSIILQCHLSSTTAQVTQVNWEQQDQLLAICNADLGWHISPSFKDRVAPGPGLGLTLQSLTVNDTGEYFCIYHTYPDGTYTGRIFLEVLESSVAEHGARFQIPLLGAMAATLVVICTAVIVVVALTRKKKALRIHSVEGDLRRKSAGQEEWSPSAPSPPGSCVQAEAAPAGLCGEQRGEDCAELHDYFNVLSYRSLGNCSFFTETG
# T2: human TIGIT-His protein (Acrobiosystems) (human, UniProt Q495A1 22-141)
# T2 construct: Bought; Genbank NP_776160
# T2 sequence: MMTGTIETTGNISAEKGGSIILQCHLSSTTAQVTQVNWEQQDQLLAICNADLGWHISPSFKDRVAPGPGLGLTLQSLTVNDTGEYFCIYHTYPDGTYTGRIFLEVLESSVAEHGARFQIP
# T3: TIGIT on TIGIT effector cells (UniProt Q495A1 22-244, limits assumed)
# T3 sequence (looked up): T1 sequence
# T4: mouse TIGIT-His protein (Acrobiosystems) (mouse, UniProt P86176 29-148, limits assumed)
# T4 construct: bought
# T4 sequence (looked up): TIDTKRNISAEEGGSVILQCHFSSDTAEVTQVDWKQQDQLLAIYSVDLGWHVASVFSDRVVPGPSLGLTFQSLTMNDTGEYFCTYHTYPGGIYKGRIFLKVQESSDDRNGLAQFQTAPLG
# T5: TIGIT on activated primary human T cells (human, UniProt Q495A1)
# T5 sequence (receptor, looked up): T1 sequence
# B1: 22G2 (IgG1) mAb (antibody, V domains shown)
# VH: QVQLQESGPGLVKPSETLSLTCTVSGGSVSSGIYYWSWIRQPPGKGLEWIGYIYYSGSTNYNPSLKSRVTISVDTSKNQFSLKLSSVTAADTAVYYCARDYYVSGNYYNVDYYFFGVDVWGQGTTVTVSS
# VL: EIVLTQSPATLSLSPGERATLSCRASQSVSSYLAWYQQKPGQAPRLLIYDASNRATGIPARFSGSGSGTDFTLTISSLEPEDFAVYYCQQRSNWPPLFTFGPGTKVDIKR
# notes: also called 22G2 (IgG1) (anti-TIGIT)
# B2: BTP-13 (bispecific antibody, human IgG4 S228P, kappa)
# heavy: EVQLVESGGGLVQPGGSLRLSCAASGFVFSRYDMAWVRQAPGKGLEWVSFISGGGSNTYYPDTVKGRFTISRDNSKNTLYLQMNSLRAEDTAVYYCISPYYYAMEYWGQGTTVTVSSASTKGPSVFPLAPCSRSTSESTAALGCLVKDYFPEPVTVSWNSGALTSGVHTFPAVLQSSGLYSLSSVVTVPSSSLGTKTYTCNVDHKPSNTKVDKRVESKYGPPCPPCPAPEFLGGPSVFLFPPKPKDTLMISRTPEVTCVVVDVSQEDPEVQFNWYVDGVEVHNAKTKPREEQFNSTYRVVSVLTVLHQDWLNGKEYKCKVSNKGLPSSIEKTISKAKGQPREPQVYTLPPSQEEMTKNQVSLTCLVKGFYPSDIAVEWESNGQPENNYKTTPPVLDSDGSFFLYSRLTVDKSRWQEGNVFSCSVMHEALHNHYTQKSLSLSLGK
# light: EVQLVESGGGLVQPGGSLRLSCAASGYKYGVYSMGWFRQAPGKGLEGVSAICSGGRTTYSDSVKGRFTISRDNSNQILYLQMNSLRAEDTAVYYCAARPLWTGDCDLSSSWYKTWGQGTLVTVSSEPKSSDKTHTSPPSPDIQMTQSPSSVSASVGDRVTITCKASQDVDTAVAWYQQKPGKAPKLLIYWASTRHTGVPSRFSGSGSGTDFTLTISSLQPEDFATYYCQQYSTFPWTFGGGTKVEIKRTVAAPSVFIFPPSDEQLKSGTASVVCLLNNFYPREAKVQWKVDNALQSGNSQESVTEQDSKDSTYSLSSTLTLSKADYEKHKVYACEVTHQGLSSPVTKSFNRGEC
# notes: AS19584VH28 - mutated hIgG1 hinge - PD1-BM-min light chain; PD1-BM-min heavy chain (IgG4); also called BTP-13 (IgG4); PD-1×TIGIT BABP
# B3: PD1-BM-min (IgG4) (antibody, V domains shown)
# VH: EVQLVESGGGLVQPGGSLRLSCAASGFVFSRYDMAWVRQAPGKGLEWVSFISGGGSNTYYPDTVKGRFTISRDNSKNTLYLQMNSLRAEDTAVYYCISPYYYAMEYWGQGTTVTVSS
# VL: DIQMTQSPSSVSASVGDRVTITCKASQDVDTAVAWYQQKPGKAPKLLIYWASTRHTGVPSRFSGSGSGTDFTLTISSLQPEDFATYYCQQYSTFPWTFGGGTKVEIKR
# notes: anti-PD-1 monoclonal antibody, human IgG4 Fc
# B4: BTP-11 (bispecific antibody, human IgG4 S228P, kappa)
# heavy: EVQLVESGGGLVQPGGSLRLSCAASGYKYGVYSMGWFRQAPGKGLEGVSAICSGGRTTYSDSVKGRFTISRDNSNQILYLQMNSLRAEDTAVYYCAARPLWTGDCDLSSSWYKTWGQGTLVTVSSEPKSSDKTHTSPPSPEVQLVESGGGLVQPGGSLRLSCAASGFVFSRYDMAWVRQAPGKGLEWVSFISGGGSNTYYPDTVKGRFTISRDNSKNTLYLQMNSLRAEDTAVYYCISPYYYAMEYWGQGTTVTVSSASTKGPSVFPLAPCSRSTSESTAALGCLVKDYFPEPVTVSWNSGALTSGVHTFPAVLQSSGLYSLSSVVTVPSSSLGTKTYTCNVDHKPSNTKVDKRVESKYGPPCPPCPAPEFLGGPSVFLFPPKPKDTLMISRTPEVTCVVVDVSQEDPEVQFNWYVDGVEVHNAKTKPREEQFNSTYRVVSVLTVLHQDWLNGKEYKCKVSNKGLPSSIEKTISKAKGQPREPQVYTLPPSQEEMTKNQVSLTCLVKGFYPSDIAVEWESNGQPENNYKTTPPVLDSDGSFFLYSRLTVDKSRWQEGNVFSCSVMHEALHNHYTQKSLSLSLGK
# light: DIQMTQSPSSVSASVGDRVTITCKASQDVDTAVAWYQQKPGKAPKLLIYWASTRHTGVPSRFSGSGSGTDFTLTISSLQPEDFATYYCQQYSTFPWTFGGGTKVEIKRTVAAPSVFIFPPSDEQLKSGTASVVCLLNNFYPREAKVQWKVDNALQSGNSQESVTEQDSKDSTYSLSSTLTLSKADYEKHKVYACEVTHQGLSSPVTKSFNRGEC
# notes: AS19584VH28 - mutated hIgG1 hinge - PD1-BM-min heavy chain (IgG4); also called BTP-11 (IgG4); PD-1×TIGIT BABP
# B5: Tiragolumab (antibody, human IgG1, kappa, V domains shown)
# VH: EVQLQQSGPGLVKPSQTLSLTCAISGDSVSSNSAAWNWIRQSPSRGLEWLGKTYYRFKWYSDYAVSVKGRITINPDTSKNQFSLQLNSVTPEDTAVFYCTRESTTYDLLAGPFDYWGQGTLVTVSS
# VL: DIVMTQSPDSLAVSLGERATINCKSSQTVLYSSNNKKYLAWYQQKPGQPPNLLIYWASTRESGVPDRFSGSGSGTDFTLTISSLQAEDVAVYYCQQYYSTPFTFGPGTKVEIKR
# notes: also called Tiragolumab (anti-TIGIT)
# B6: AS19584VH28-Fc fusion protein with effectorless human IgG1 (inert hIgG1) Fc (Fc fusion)
# chain: EVQLVESGGGLVQPGGSLRLSCAASGYKYGVYSMGWFRQAPGKGLEGVSAICSGGRTTYSDSVKGRFTISRDNSNQILYLQMNSLRAEDTAVYYCAARPLWTGDCDLSSSWYKTWGQGTLVTVSSAPELLGGPSVFLFPPKPKDTLMISRTPEVTCVVVDVSHEDPEVKFNWYVDGVEVHNAKTKPREEQYASTYRVVSVLTVLHQDWLNGKEYKCKVSNKALPAPIEKTISKAKGQPREPQVYTLPPSREEMTKNQVSLTCLVKGFYPSDIAVEWESNGQPENNYKTTPPVLDSDGSFFLYSKLTVDKSRWQQGNVFSCSVMHEALHNHYTQKSLSLSPGK
# notes: built from the sdAb and the inert IgG1 Fc region it names; also called AS19584VH28 (inert IgG1); AS19584VH28 inert IgG1
# Assays:
# [1] = target: T1, human TIGIT expressed on CHO-K1 cells; assay: FACS competition, CD155 binding to CHO-TIGIT cells
# [2] = target: T2, human TIGIT-His protein (Acrobiosystems); assay: SPR (BIAcore T200), target amine-coupled to CM5 chip
# [3] = target: T6, cynomolgus TIGIT-His protein (Acrobiosystems) (cynomolgus, UniProt A0A7N9I9V4 89-209); assay: as above
# T6 construct: bought
# T6 sequence (A0A7N9I9V4 entry or part of it): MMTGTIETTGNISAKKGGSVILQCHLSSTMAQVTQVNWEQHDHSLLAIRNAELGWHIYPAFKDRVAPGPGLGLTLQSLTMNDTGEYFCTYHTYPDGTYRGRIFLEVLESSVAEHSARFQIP
# [4] = target: T2, human TIGIT-His protein (Acrobiosystems); assay: as above; remark: listed apart in the source
# [5] = target: T6, cynomolgus TIGIT-His protein …; assay: as above; remark: listed apart in the source
# [6] = target: T3, TIGIT on TIGIT effector cells; assay: cell-based or functional assay
# [7] = target: T1, human TIGIT expressed on CHO-K1 cells; assay: FACS, CHO-K1 cells expressing human TIGIT
# [8] = target: T1, human TIGIT expressed on CHO-K1 cells; assay: FACS competition, biotinylated CD155-Fc on CHO/human TIGIT cells
# [9] = target: T3, TIGIT on TIGIT effector cells; assay: cell-based or functional assay; remark: listed apart in the source
# [10] = target: T1, human TIGIT expressed on CHO-K1 cells; assay: FACS, CHO-TIGIT cells
# [11] = target: T1, human TIGIT expressed on CHO-K1 cells; assay: FACS, CHO-TIGIT cells; remark: listed apart in the source
# [12] = target: T1, human TIGIT expressed on CHO-K1 cells; assay: FACS, CHO-K1 cells expressing human TIGIT; remark: listed apart in the source
# [13] = target: T3, TIGIT on TIGIT effector cells; assay: cell-based or functional assay; remark: listed apart in the source
# [14] = target: T7, cynomolgus TIGIT expressed on CHO-K1 cells (cynomolgus, UniProt A0A7N9I9V4 89-312); assay: FACS, CHO-K1 cells expressing cynomolgus TIGIT
# T7 construct: whole, on cells
# T7 sequence (A0A7N9I9V4 entry or part of it): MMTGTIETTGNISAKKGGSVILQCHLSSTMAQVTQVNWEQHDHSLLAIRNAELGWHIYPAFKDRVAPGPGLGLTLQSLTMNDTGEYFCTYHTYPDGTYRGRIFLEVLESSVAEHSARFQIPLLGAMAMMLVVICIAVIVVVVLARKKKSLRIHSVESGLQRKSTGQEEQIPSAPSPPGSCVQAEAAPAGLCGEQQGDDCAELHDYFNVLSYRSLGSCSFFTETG
# [15] = target: T7, cynomolgus TIGIT expressed on CHO-K1 …; assay: FACS, CHO-K1 cells expressing cynomolgus TIGIT; remark: listed apart in the source
# [16] = target: T3, TIGIT on TIGIT effector cells; assay: cell-based or functional assay; remark: listed apart in the source
# [17] = target: T1, human TIGIT expressed on CHO-K1 cells; assay: FACS competition, biotinylated CD155-Fc on CHO/human TIGIT cells; remark: listed apart in the source
# [18] = target: T1, human TIGIT expressed on CHO-K1 cells; assay: FACS competition, CD155 binding to CHO-TIGIT cells; remark: listed apart in the source
# PD-1 expressed on cells [19] = target: T8, PD-1 expressed on cells (UniProt Q15116 25-288, limits assumed); assay: FACS competition, PD-L1 binding to CHO-PD-1 cells
# T8 construct: whole, on cells; also called CHO-PD-1 cells; PD-1 effector cells
# T8 sequence (Q15116 25-288 limits assumed): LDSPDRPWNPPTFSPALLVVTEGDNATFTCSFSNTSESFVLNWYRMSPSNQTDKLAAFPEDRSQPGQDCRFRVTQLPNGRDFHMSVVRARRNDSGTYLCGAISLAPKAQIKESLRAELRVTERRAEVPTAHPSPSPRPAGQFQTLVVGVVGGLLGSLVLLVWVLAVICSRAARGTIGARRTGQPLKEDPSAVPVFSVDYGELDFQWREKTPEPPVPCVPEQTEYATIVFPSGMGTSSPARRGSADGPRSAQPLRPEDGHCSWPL
# [20] = target: T9, human PD-1 (Acrobiosystems) (human, UniProt Q15116 25-167); assay: SPR as in Example 2
# T9 construct: bought
# T9 sequence (Q15116 25-167 limits assumed): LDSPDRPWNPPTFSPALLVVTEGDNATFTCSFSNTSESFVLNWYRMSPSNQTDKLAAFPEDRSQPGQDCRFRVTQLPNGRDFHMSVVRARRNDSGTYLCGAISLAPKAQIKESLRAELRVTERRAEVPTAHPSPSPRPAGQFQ
# [21] = target: T4, mouse TIGIT-His protein (Acrobiosystems); assay: SPR as in Example 2
# PD-1 expressed on cells [22] = target: T8, PD-1 expressed on cells; assay: FACS, CHO-PD-1 cells
# PD-1 expressed on cells [23] = target: T8, PD-1 expressed on cells; assay: cell-based or functional assay
# [24] = target: T5, TIGIT on activated primary human T cells; assay: FACS binding to activated, expanded primary human CD4+ T cells isolated from PBMCs; the sheet names only the cells, target by the binder's specificity as named in the filing (anti-TIGIT)
# [25] = target: T3, TIGIT on TIGIT effector cells; assay: cell-based or functional assay; remark: listed apart in the source
# [26] = target: T5, TIGIT on activated primary human T cells; assay: FACS binding to activated, expanded primary human CD8+ T cells isolated from PBMCs; the sheet names only the cells, target by the binder's specificity as named in the filing (anti-TIGIT)
# [27] = target: T2, human TIGIT-His protein (Acrobiosystems); assay: SPR as in Example 2
binder,measurement,setting,value
B1,EC50,[1],2.31 nM
same,Kd,[2],0.19 nM
same,koff,[2],0.00027 s⁻¹
same,kon,[2],1.4e+06 M⁻¹ s⁻¹
same,Kd,[3],3.4 nM
same,koff,[3],0.0068 s⁻¹
same,kon,[3],2e+06 M⁻¹ s⁻¹
same,Kd,[4],0.12 nM
same,koff,[4],0.00016 s⁻¹
same,kon,[4],1.4e+06 M⁻¹ s⁻¹
same,Kd,[5],4.1 nM
same,koff,[5],0.0056 s⁻¹
same,kon,[5],1.3e+06 M⁻¹ s⁻¹
same,TIGIT IL-2 release EC50,[6],2.26 nM
same,TIGIT Reporter assay EC50,[6],6.01 nM
same,EC50,[7],0.494 nM
same,EC50,[8],2.7 nM
same,"TIGIT/CD155 blockade reporter assay, EC50",[9],7.92 nM
same,"TIGIT/CD155 blockade reporter assay, Signal span",[9],108
same,EC50,[10],1.6 nM
same,EC50,[11],2.46 nM
same,EC50,[12],1.14 nM
same,IL-2 release assay EC50,[13],3.07 nM
same,Reporter assay EC50,[13],3.04 nM
same,EC50,[14],1.12 nM
same,EC50,[15],0.604 nM
same,TIGIT Reporter assay EC50,[16],4.65 nM
same,EC50,[17],1.94 nM
same,EC50,[18],1.11 nM
B2,EC50,PD-1 expressed on cells [19],2.21 nM
same,Kd,[20],0.42 nM
same,Kd,[21],0.62 nM
same,EC50,PD-1 expressed on cells [22],1.92 nM
same,PD-1 cell based assay EC50,PD-1 expressed on cells [23],2.33 nM
same,TIGIT IL-2 release EC50,[16],0.565 nM
same,TIGIT Reporter assay EC50,[16],4.03 nM
B3,EC50,PD-1 expressed on cells [19],1.51 nM
same,Kd,[20],1.2 nM
same,EC50,PD-1 expressed on cells [22],1.72 nM
same,PD-1 cell based assay EC50,PD-1 expressed on cells [23],1.21 nM
B4,EC50,PD-1 expressed on cells [19],8.68 nM
same,Kd,[20],4 nM
same,Kd,[21],0.5 nM
same,EC50,PD-1 expressed on cells [22],6.31 nM
same,PD-1 cell based assay EC50,PD-1 expressed on cells [23],8.51 nM
same,TIGIT IL-2 release EC50,[16],0.778 nM
same,TIGIT Reporter assay EC50,[16],7.81 nM
B5,EC50,[1],2.42 nM
same,EC50,[24],0.403 nM
same,EC50,[10],2.24 nM
same,PD-L1/TIGIT bifunctional reporter assay: EC50,[25],3.61 nM
same,PD-L1/TIGIT bifunctional reporter assay: Upper plateau of signal,[25],983
same,EC50,[26],1.41 nM
same,TIGIT Reporter assay EC50,[16],11.4 nM
B6,EC50,[24],0.107 nM
same,Kd,[27],0.36 nM
same,Kd,[21],1.1 nM
same,PD-L1/TIGIT bifunctional reporter assay: EC50,[25],10.6 nM
same,PD-L1/TIGIT bifunctional reporter assay: Upper plateau of signal,[25],1610
same,EC50,[26],0.174 nM
same,TIGIT Reporter assay EC50,[16],5.42 nM
